Laboratory results as given in US20140162285A1, “Methods of Modulating Vesicular Trafficking” (The General Hospital Corporation, priority 2009, published 2014).
Entries after “also recorded” stand apart in the source; their conditions may differ. Ends that are not written are not given here.

T1: 6His-a2N(wt) (Mus musculus, UniProt P15920)
T1 construct: amino acid residues 1-402 of mouse V-ATPase a2-subunit (a2N1-402); made in house; host or cells: cell-free in vitro translation
T1 sequence (P15920 1-402): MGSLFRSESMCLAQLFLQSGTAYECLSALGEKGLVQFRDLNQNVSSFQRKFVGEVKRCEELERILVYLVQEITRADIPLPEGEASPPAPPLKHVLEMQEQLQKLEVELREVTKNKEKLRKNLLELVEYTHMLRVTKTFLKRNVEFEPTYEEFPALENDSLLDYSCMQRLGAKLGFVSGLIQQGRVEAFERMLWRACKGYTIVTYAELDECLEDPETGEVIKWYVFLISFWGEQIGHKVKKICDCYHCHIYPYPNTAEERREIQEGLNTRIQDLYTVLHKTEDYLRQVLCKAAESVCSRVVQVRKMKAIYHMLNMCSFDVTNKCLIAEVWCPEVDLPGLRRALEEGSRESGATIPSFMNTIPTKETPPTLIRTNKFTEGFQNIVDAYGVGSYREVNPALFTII

T2: GST-ARNO(wt) (Homo sapiens, UniProt Q99418)
T2 construct: i) 1-400aa, full length ARNO(wt); made in house; host or cells: E. coli BL21(DE3)
T2 sequence (Q99418 1-400): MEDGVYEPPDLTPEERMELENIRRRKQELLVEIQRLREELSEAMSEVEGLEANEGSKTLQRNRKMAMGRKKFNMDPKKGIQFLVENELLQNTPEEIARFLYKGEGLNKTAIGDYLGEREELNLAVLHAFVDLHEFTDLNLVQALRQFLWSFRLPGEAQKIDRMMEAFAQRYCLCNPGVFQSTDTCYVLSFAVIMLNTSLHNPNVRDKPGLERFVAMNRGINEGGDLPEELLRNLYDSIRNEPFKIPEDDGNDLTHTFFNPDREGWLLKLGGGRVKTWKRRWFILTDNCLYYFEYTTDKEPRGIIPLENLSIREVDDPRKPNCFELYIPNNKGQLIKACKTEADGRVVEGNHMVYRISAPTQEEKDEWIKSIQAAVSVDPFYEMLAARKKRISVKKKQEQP


Legend:
[1] = target: T1, 6His-a2N(wt); test: ARNO-derived peptide pull-down with in vitro translated 6His-a2N(wt); assay type: binding; details: 7 nmol biotin-tagged peptide on streptavidin-agarose beads
Description: FIGS. 4B-C are images of Western blots showing (4B) the results of peptide pull-down assays for interaction of a2N with Sec7-PH-linker of ARNO and (4C) phosphorylation-dependent interaction of a2N with ARNO-derived peptide corresponding to the PB-domain of ARNO. Corresponding ARNO-derived peptides were immobilized on streptavidin-beads and incubated with in vitro translated recombinant a2N. Interacting complexes were eluted and analyzed by Western blotting using anti-a2N antibodies.
ARNO-derived peptides, equal amounts (7 nmol) of biotin-tagged synthetic peptides were also immobilized on streptavidin-agarose beads followed by incubation with 10 μl of in vitro translated 6His-a2N(wt) recombinant protein. Pull-down experiments and SDS-PAGE analysis were performed as described above and interacting 6His-a2N/ARNO-derived-peptide complexes were analyzed by Western blotting using polyclonal anti-a2N antibody. All experiments were repeated at least three times with similar results.

[2] = target: T2, GST-ARNO(wt); test: recombinant protein pull-down of in vitro translated a2N-N / a2N-C with GST-ARNO(wt); assay type: binding; details: 35S-labeled in vitro translated protein, autoradiography
Description: FIG. 2C is an image of a Western blot showing that both the amino terminus (a2N-N) and carboxyl terminus (a2N-C) of the cytosolic tail of the a2-subunit interact with ARNO(wt). Left panel, a pull-down (PD) of in vitro translated metabolically labeled a2N-N (a2N1-133) with recombinant GST-only and GST-ARNO(wt) used as a baits. […] Right panel, a pull-down (PD) of in vitro translated metabolically labeled a2N-C (a2N134-393) with recombinant GST-only and GST-ARNO(wt) used as a baits.
The purified recombinant GST-ARNO(wt) and GST-tagged ARNO domain constructs ([…]) were incubated with 10 μl of in vitro translated 6His-a2N recombinant protein at 4° C. for 2 hours in 500 μl of binding buffer (10 mM HEPES, 1 mM EDTA, 1 mM DTT, 100 mM NaCl, 10% glycerol, 0.1% NP-40) with gentle rotation. Then the interacting recombinant proteins were immobilized on glutathione beads by incubation with 50 μl of 50% glutathione Sepharose 4B slurry for 2 hours at 4° C. The beads were collected by centrifugation and washed 5 times with 500 μl ice-cold binding buffer. Interacting proteins were eluted by boiling in SDS-PAGE sample buffer for 10 min at 95° C., resolved by SDS-PAGE and analyzed by Western blotting using polyclonal anti-a2N antibodies. […]

interaction of ARNO-derived peptide with a2N [1] | Molecule | interaction with GST-ARNO(wt) in pull-down [2]
direct interaction | ARNO375-400: biotinylated non-phosphorylated peptide covering the PB-domain of ARNO plus four PH/PB-linker amino acids, SEQ ID NO:32 (VSVDPFYEMLAARKKRISVKKKQEQP; also: biotinylated, site not given here) | 
 | a2N-C: C-terminal part of a2N, amino acid residues 134-393 of the mouse V-ATPase a2-subunit, in vitro translated (protein) MSGSHHHHHHSSGIEGRGRLIKMTVTKTFLKRNVEFEPTYEEFPALENDSLLDYSCMQRLGAKLGFVSGLIQQGRVEAFERMLWRACKGYTIVTYAELDECLEDPETGEVIKWYVFLISFWGEQIGHKVKKICDCYHCHIYPYPNTAEERREIQEGLNTRIQDLYTVLHKTEDYLRQVLCKAAESVCSRVVQVRKMKAIYHMLNMCSFDVTNKCLIAEVWCPEVDLPGLRRALEEGSRESGATIPSFMNTIPTKETPPTLIRTNKFTEGFQNIVDAYGVGSYRE | could interact; also recorded: direct interaction
 | a2N-N: N-terminal part of a2N, amino acid residues 1-133 of the mouse V-ATPase a2-subunit, in vitro translated (protein) MSGSHHHHHHSSGIEGRGRLIKMTMGSLFRSESMCLAQLFLQSGTAYECLSALGEKGLVQFRDLNQNVSSFQRKFVGEVKRCEELERILVYLVQEITRADIPLPEGEASPPAPPLKHVLEMQEQLQKLEVELREVTKNKEKLRKNLLELVEYTHMLR | could interact; also recorded: direct interaction
